Laboratory results as given in paper doi:10.1101/2021.07.27.453956 (bioRxiv, 2021).
Each block holds one molecule with its values, some of them ahead of it.

B1: TwinStrep-MBP-Panx, full length, recombinant (SFiNX subunit) (natural protein)
chain: MEAPMKLEVKVENYVECGINEDEATPLREGTGETPPHAFACGVPMSGSGWCSDPEDGNLVHHSATPTSDEHLQPSLDTIEPKMEPKIKEDADNAMLDSLLADPFENNSPATLQTPADVKPNAMLDSVEQGSRSCELLPSEFSKRENLDDMDLFSLKAAKTLVPDEQQSFPQNDTPIDDPEAADLIAQKREILKMLEMTAENRKVKHKKKKHKKERSHRSNKHQEESRKRNHSNSSSDEGADDKNQFDCDYRGHKKYKNRRGSASSQNESSKERKLRDTELDYVPVRPDEHFIRPIKFSNLIERRPPQVEFNTVNLSKADKRSLAVARAELVLEQIQQKANKEEPPEFHMVDTICKLPVNESFRNQDCFENPSPICNNMNVVYKFNSTPGTRIDLSKWGLETVPEATKRLLRLLGIDVARLKELQSTVKPSQRILKLKKEQLEQGLAPTEEQETATLYKNAATQTERRTATRDAGTQVRLESKLNGAFWQNPHFDPMNLTQHQSNVMLALQEIYQTLPSATMAVKLSRALAPALAIIKGRQP
B2: His6-Ctp, recombinant (SFiNX subunit) (natural protein)
chain: MSDRKAVIKNADMSEEMQQDAVDCATQALEKYNIEKDIAAYIKKEFDKKYNPTWHCIVGRNFGSYVTHETRHFIYFYLGQVAILLFKSG

Columns and labels:
[1] = target: Sov NTD (aa 14-90), C-terminal His tagged (D. melanogaster); assay: ITC
[2] = target: Nxf2–Nxt1 heterodimer, recombinant (SFiNX subunits) (Drosophila, UniProt Q9VV73;Q9V3H8); assay: co-purification of a recombinant complex
[3] = target: B1; assay: co-purification of a recombinant complex

Nxf2–Nxt1 heterodimer, recombinant (SFiNX subunits), sequence (Q9VV73 whole entry, one chain of several): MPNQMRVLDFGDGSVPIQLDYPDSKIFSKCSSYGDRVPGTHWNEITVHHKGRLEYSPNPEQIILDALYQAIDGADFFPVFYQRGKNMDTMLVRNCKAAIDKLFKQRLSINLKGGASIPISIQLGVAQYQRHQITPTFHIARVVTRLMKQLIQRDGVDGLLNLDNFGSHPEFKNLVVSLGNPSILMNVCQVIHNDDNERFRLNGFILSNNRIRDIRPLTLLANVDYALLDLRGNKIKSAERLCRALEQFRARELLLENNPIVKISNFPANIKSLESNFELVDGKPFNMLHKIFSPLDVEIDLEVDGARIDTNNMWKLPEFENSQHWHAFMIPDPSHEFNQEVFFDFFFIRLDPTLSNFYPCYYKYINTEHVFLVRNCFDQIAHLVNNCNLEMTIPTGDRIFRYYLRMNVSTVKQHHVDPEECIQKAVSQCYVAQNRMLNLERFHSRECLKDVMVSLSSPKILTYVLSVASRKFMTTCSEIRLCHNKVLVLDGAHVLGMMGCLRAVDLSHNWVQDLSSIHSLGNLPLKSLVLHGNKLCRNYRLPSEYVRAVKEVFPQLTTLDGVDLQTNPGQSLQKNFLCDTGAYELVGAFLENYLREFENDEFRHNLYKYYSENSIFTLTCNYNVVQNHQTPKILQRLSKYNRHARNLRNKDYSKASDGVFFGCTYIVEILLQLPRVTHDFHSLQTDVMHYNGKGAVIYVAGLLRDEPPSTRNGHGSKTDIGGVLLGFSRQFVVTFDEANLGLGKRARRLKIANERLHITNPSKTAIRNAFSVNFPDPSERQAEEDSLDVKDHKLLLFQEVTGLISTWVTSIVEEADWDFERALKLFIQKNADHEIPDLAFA

Kd [1]: 870 nM
Molecule: His-SUMO tagged Panx LxxLL peptide (aa 82-108), wildtype (from UniProt Q9W2H9 82-108)

Molecule: B1
binding result [2]: binds

Molecule: B2
binding result [3]: binds
